Data published in publication PMC13581288, “The chromokinesin Kid (KIF22) forms a homodimer, moves processively along microtubules, and transports double-stranded DNA” (eLife, 2024).

Legend:
[1] = target: KIF1AMD-XKidSt (chimera of the KIF1A motor domain with the neck linker and coiled-coil domain of XKid) (not stated | Xenopus); assay: SEC; Superdex 200 Increase 10/300 GL on an NGC system; micromolar protein concentrations; UNC-104(1-653)-sfGFP (or mScarlet for XKidCC-mScarlet) run as size marker
[2] = target: the molecule itself; assay: as above

| Molecule | stoichiometry N [1] | stoichiometry N [2] |
| --- | --- | --- |
| KIF1AMD-XKidSt (chimera of the KIF1A motor domain with the neck linker and coiled-coil domain of XKid) | 2 | – |
| KIF1A(1-393)LZ (other) MAGASVKVAVRVRPFNSREMSRDSKCIIQMSGSTTTIVNPKQPKETPKSFSFDYSYWSHTSPEDINYASQKQVYRDIGEEMLQHAFEGYNVCIFAYGQTGAGKSYTMMGKQEKDQQGIIPQLCEDLFSRINDTTNDNMSYSVEVSYMEIYCERVRDLLNPKNKGNLRVREHPLLGPYVEDLSKLAVTSYNDIQDLMDSGNKARTVAATNMNETSSRSHAVFNIIFTQKRHDAETNITTEKVSKISLVDLAGSERADSTGAKGTRLKEGANINKSLTTLGKVISALAEMDSGPNKNKKKKKTDFIPYRDSVLTWLLRENLGGNSRTAMVAALSPADINYDETLSTLRYADRAKQIRCNAVINEDPNNKLIRELKDEVTRLRDLLYAQGLGDITDLEDKVEELLSKNYHLENEVARL | – | 2 |
| full-length human Kid tagged with mNeonGreen (hKidFL-mNeonGreen) (natural protein, UniProt Q14807 1-665, looked up, Kid (KIF22), human, full length; cDNA corresponding to GenBank DQ895829.2; also called hKid-mNeonGreen; hKidFL-mNG; not shown: mNeonGreen, C-terminal, kept) MAAGGSTQQRRREMAAASAAAISGAGRCRLSKIGATRRPPPARVRVAVRLRPFVDGTAGASDPPCVRGMDSCSLEIANWRNHQETLKYQFDAFYGERSTQQDIYAGSVQPILRHLLEGQNASVLAYGPTGAGKTHTMLGSPEQPGVIPRALMDLLQLTREEGAEGRPWALSVTMSYLEIYQEKVLDLLDPASGDLVIREDCRGNILIPGLSQKPISSFADFERHFLPASRNRTVGATRLNQRSSRSHAVLLVKVDQRERLAPFRQREGKLYLIDLAGSEDNRRTGNKGLRLKESGAINTSLFVLGKVVDALNQGLPRVPYRDSKLTRLLQDSLGGSAHSILIANIAPERRFYLDTVSALNFAARSKEVINRPFTNESLQPHALGPVKLSQKELLGPPEAKRARGPEEEEIGSPEPMAAPASASQKLSPLQKLSSMDPAMLERLLSLDRLLASQGSQGAPLLSTPKRERMVLMKTVEEKDLEIERLKTKQKELEAKMLAQKAEEKENHCPTMLRPLSHRTVTGAKPLKKAVVMPLQLIQEQAASPNAEIHILKNKGRKRKLESLDALEPEEKAEDCWELQISPELLAHGRQKILDLLNEGSARDLRSLQRIGPKKAQLIVGWRELHGPFSQVEDLERVEGITGKQMESFLKANILGLAAGQRCGAS | – | 2 |
| full-length Xenopus Kid tagged with mScarlet (XKidFL-mScarlet) (natural protein, UniProt Q9I869 1-651, looked up, Kid (Kif22.S), Xenopus, full length; cDNA corresponding to GenBank BC070549.1; also called XKid-mScarlet; Full-length XKid; not shown: mScarlet, C-terminal, kept) MVLTGPLQRESVSMAKRVSMLDQHKKSSCARVRVAVRLRPYMDEKDEAKATTVCVRGLDSQSLEIVNWRNQLETMQYQFDAFYGDSASQREIYMGSVCHILPHLLIGQNASVFAYGPTGAGKTHTMLGNPNQPGVIPRAVRDLLQMSRTAASAPENENWTYTINMSYVEIYQEKVMDLLEPKNKDLPIREDKDHNILIPGVTQKMINSFADFDEHFIPASQNRTVASTKLNDRSSRSHAVLLIKVQKSQQVVPFRQLTGKLYLIDLAGSEDNRRTGNQGIRLKESGAINSSLFTLSKVVDALNQGLPRIPYRDSKLTRLLQDSLGGSAHSVMITNIAPEQTYYFDTLTALNFAAKSKQIINKPFSQETTQTVVQPAMKRPREETGHIAGSQKRKKSKNDSTESSPNSSMDTAGKQKLNLATLDPAVVERLLKLDKILTEKGKKKAQLLSTPKRERMALLKKWEESQMEIERLKEKQKELEQKAMEAEARLEKSNNSDLSDSSVSENTFRAPLRGRNTSTAKVKKVLRVLPMQGNSQLQSTVEEGIPVFEKKKKKKQVTCEGLENQPTWEMNMRTDLLESGKERILKLLNTGSVKELKSLQRIGDKKAKLIIGWREVNGPFKNVEELACLEGISAKQVSSFIKANIMSSIAS | – | 2 |
| XKid(1-496)-mScarlet (domain or fragment, Xenopus, UniProt Q9I869 1-496, looked up, deletion mutant made by PCR-based mutagenesis; also called XKid(1-497); not shown: mScarlet, C-terminal, kept) MVLTGPLQRESVSMAKRVSMLDQHKKSSCARVRVAVRLRPYMDEKDEAKATTVCVRGLDSQSLEIVNWRNQLETMQYQFDAFYGDSASQREIYMGSVCHILPHLLIGQNASVFAYGPTGAGKTHTMLGNPNQPGVIPRAVRDLLQMSRTAASAPENENWTYTINMSYVEIYQEKVMDLLEPKNKDLPIREDKDHNILIPGVTQKMINSFADFDEHFIPASQNRTVASTKLNDRSSRSHAVLLIKVQKSQQVVPFRQLTGKLYLIDLAGSEDNRRTGNQGIRLKESGAINSSLFTLSKVVDALNQGLPRIPYRDSKLTRLLQDSLGGSAHSVMITNIAPEQTYYFDTLTALNFAAKSKQIINKPFSQETTQTVVQPAMKRPREETGHIAGSQKRKKSKNDSTESSPNSSMDTAGKQKLNLATLDPAVVERLLKLDKILTEKGKKKAQLLSTPKRERMALLKKWEESQMEIERLKEKQKELEQKAMEAEARLEKSNNS | – | 2 |
